Assay results published in patent US20250034266A1 (ZAI LAB SHANGHAI, published 2025).

Tests used:
human CCR8 [1] = target: T1, human CCR8 (human, UniProt P51685 1-355); assay: FACS, competition with CCL1 on CHO-K1-human CCR8 cells
T1 construct: whole, on cells; also called hCCR8

human CCR8 [2] = target: T1, human CCR8; assay: FACS on CHO-K1-human CCR8 cells
cynomolgus CCR8 = target: T2, cynomolgus CCR8 (cynomolgus, UniProt G7NYJ2 1-355); assay: FACS on HEK293-cynomolgus CCR8 cells
T2 construct: whole, on cells
T2 sequence (G7NYJ2 entry or part of it): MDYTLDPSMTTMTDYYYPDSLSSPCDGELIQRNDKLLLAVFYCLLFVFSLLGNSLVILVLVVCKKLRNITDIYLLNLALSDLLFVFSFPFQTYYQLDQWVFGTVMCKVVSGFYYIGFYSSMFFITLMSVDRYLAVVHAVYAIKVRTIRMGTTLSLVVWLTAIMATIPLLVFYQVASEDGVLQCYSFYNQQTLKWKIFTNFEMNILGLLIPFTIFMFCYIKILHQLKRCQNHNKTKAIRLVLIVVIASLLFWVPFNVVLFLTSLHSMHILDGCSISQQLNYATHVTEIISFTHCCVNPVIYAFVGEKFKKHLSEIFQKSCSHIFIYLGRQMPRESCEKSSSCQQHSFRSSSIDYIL

human CCR8 [3] = target: T1, human CCR8; assay: FACS on HuT78 cells (endogenous human CCR8)
Protocol: HuT78 cells expressing endogenous human CCR8 were used for determining binding affinities of selected affinity matured anti-CCR8 antibodies. Briefly, a total of […] cells for each well were seeded in 96-well plates and washed with FACS buffer (DPBS containing […]) for once. […] Cells were incubated with 50 μL of diluted antibodies at 4° C. for 1 hour. After primary antibody incubation, cells were washed for 3 times by FACS buffer. Then, cells were stained by Alexa Fbu647 labeled anti-human IgG secondary antibody (Jackson ImmunoResearch, #109606170) at 1:600 dilution in FACS buffer for 0.5 hour at 4° C. After 3 times washed, flow cytometry (Sartourius, iQue3) was performed to measure the binding affinities of antibodies. […]

human CCR8 [4] = target: T1, human CCR8; assay: FACS, competition with AF647-human CCL1 on CHO-K1-human CCR8 cells
Protocol: (§1) Antibodies were prepared with 3-fold serial dilution ranging from 200 nM to 0.01 nM in FACS buffer. Then, cells were washed by FACS buffer for three times after incubation. […] FlowJo software was used for analysis. Data was plotted as the logarithm of antibody concentration versus mean fluorescence signals. IC₅₀ values were determined in GraphPad Prism 8 (GraphPad Software) using a log(agonist) vs. response-Variable slope (4 parameters) curve fit.

human CCR8 [5] = target: T1, human CCR8; assay: FACS, competition with AF647-human CCL1 on HEK293-human CCR8 cells
Protocol: as §1

T1 sequence (P51685 whole entry): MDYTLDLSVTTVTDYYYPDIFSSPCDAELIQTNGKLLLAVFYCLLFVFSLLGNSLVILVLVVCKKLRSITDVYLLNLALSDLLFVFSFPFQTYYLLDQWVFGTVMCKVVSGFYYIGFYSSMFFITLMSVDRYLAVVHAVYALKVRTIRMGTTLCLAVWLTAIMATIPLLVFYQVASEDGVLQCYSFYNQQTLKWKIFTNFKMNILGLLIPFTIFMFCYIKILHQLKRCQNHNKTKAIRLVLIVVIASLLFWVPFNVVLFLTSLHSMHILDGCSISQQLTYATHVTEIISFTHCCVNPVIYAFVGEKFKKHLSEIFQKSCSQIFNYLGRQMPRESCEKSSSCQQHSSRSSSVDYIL

Row | Binder | IC50 (human CCR8 [1]) [nM] | Max Inhibition (%) (human CCR8 [1]) | EC50 (human CCR8 [2]) [nM] | Max MFI (human CCR8 [2]) [MFI] | EC50 (cynomolgus CCR8) [nM] | Max MFI (cynomolgus CCR8) [MFI] | Max MFI (human CCR8 [3]) [MFI] | EC50 (human CCR8 [3]) [nM] | IC50 (human CCR8 [4]) [nM] | Max Inhibition (%) (human CCR8 [4]) | IC50 (human CCR8 [5]) [nM] | Max Inhibition (%) (human CCR8 [5])
1 | Hu149-13 (antibody, human IgG1, V domains shown, human IgG1) VH: EVQLVESGGGLVQPGGSLKLSCAASGFTFNTYAMNWVRQASGKGLEWVGRIRSKSNFYATAYAASVKGRFTISRDDSKNTAYLQMNSLKTEDTAVYYCTRGREYGRSYAMDYWGQGTLVTVSS VL: DIVMTQSPLSLPVTPGEPASISCRSSKSLLHSNANTYLYWFLQKPGQSPQLLIYRMSNLASGVPDRFSGSGSGTDFTLKISRVEAEDVGVYYCMQHLEYPLTFGGGTKVELK | 0.0841 | 102 | 0.1 | 653000 | 0.193 | 4.37e+06 | 39100 | – | – | – | – | –
2 | Hu149-14 (antibody, human IgG1, V domains shown, human IgG1) VH: EVQLVESGGGLVQPGGSLKLSCAASGFTFNTYAMNWVRQASGKGLEWVGRIRSKSNFYATAYAASVKGRFTISRDDSKNTAYLQMNSLKTEDTAVYYCTRGREYGSAYAMDYWGQGTLVTVSS VL: DIVMTQSPLSLPVTPGEPASISCRSSKSLLHSNANTYLYWFLQKPGQSPQLLIYRMSNLASGVPDRFSGSGSGTDFTLKISRVEAEDVGVYYCMQHLEYPLTFGGGTKVELK | 0.0816 | 100 | 0.0626 | 663000 | 0.157 | 4.42e+06 | 28600 | 0.184 | – | – | – | –
3 | Hu149-15 (antibody, human IgG1, V domains shown, human IgG1) VH: EVQLVESGGGLVQPGGSLKLSCAASGFTFNTYAMNWVRQAPGKGLEWVGRIRSKSNFYATAYAASVKGRFTISRDDSKNTAYLQMNSLKTEDTAVYYCTRGRDYGSSYAMDYWGQGTLVTVSS VL: DIVMTQSPLSLPVTPGEPASISCRSSKSLLHSNANTYLYWFLQKPGQSPQLLIYRMSNLASGVPDRFSGSGSGTDFTLKISRVEAEDVGVYYCMQHLEYPLTFGGGTKVELK | 0.104 | 99.3 | 0.128 | 627000 | 0.282 | 3.93e+06 | 21300 | 0.108 | – | – | – | –
4 | Hu149-16 (antibody, human IgG1, V domains shown, human IgG1) VH: EVQLVESGGGLVQPGGSLKLSCAASGFTFNTYAMNWVRQASGKGLEWVGRIRSKSNFYATAYAASVKGRFTISRDDSKNTAYLQMNSLKTEDTAVYYCTRGRDYGSSYAMDYWGQGTLVTVSS VL: DIVMTQSPLSLPVTPGEPASISCRSSKSLLHSNANTYLYWFLQKPGQSPQLLIYRMSNLASGVPDRFSGSGSGTDFTLKISRVEAEDVGVYYCMQHLKYPLTFGGGTKVELK | 0.114 | 101 | 0.0659 | 672000 | 0.142 | 3.8e+06 | 228000 | – | – | – | – | –
5 | Hu149-17 (antibody, human IgG1, V domains shown, human IgG1) VH: EVQLVESGGGLVQPGGSLKLSCAASGFTFNTYAMNWVRQASGKGLEWVGRIRSKSNFYATAYAASVKGRFTISRDDSKNTAYLQMNSLKTEDTAVYYCTRGRDYGSSYAMDYWGQGTLVTVSS VL: DIVMTQSPLSLPVTPGEPASISCRSSKSLLHSNANTYLYWFLQKPGQSPQLLIYRMSNLASGVPDRFSGSGSGTDFTLKISRVEAEDVGVYYCMQHLSYPLTFGGGTKVELK | 0.0698 | 100 | 0.0755 | 645000 | 0.123 | 4.11e+06 | 29600 | – | – | – | – | –
6 | Hu149-19 (antibody, human IgG1, V domains shown, human IgG1) VH: EVQLVESGGGLVQPGGSLKLSCAASGFTFNTYAMNWVRQASGKGLEWVGRIRSKSNFYATAYAASVKGRFTISRDDSKNTAYLQMNSLKTEDTAVYYCTRGREYGSSYAMDYWGQGTLVTVSS VL: DIVMTQSPLSLPVTPGEPASISCRSSKSLLHSNANTYLYWFLQKPGQSPQLLIYRMSNLASGVPDRFSGSGSGTDFTLKISRVEAEDVGVYYCMQHLKYPLTFGGGTKVELK | 0.168 | 100 | 0.161 | 666000 | 0.214 | 3.95e+06 | 187000 | – | – | – | – | –
7 | Hu149-20 (antibody, human IgG1, V domains shown, human IgG1) VH: EVQLVESGGGLVQPGGSLKLSCAASGFTFNTYAMNWVRQASGKGLEWVGRIRSKSNFYATAYAASVKGRFTISRDDSKNTAYLQMNSLKTEDTAVYYCTRGKEYGSSYAMDYWGQGTLVTVSS VL: DIVMTQSPLSLPVTPGEPASISCRSSKSLLHSNANTYLYWFLQKPGQSPQLLIYRMSNLASGVPDRFSGSGSGTDFTLKISRVEAEDVGVYYCMQHLKYPLTFGGGTKVELK | 0.147 | 100 | 0.129 | 751000 | 0.158 | 4.02e+06 | 253000 | – | – | – | – | –
8 | Hu149-21 (antibody, human IgG1, V domains shown, human IgG1) VH: EVQLVESGGGLVQPGGSLKLSCAASGFTFNTYAMNWVRQASGKGLEWVGRIRSKSNFYATAYAASVKGRFTISRDDSKNTAYLQMNSLKTEDTAVYYCTRGREYGRSYAMDYWGQGTLVTVSS VL: DIVMTQSPLSLPVTPGEPASISCRSSKSLLHSNANTYLYWFLQKPGQSPQLLIYRMSNLASGVPDRFSGSGSGTDFTLKISRVEAEDVGVYYCMQHLKYPLTFGGGTKVELK | 0.796 | 101 | 0.642 | 794000 | 0.946 | 4.15e+06 | 240000 | – | – | – | – | –
9 | Hu149-22 (antibody, human IgG1, V domains shown, human IgG1) VH: EVQLVESGGGLVQPGGSLKLSCAASGFTFNTYAMNWVRQASGKGLEWVGRIRSKSNFYATAYAASVKGRFTISRDDSKNTAYLQMNSLKTEDTAVYYCTRGREYGSAYAMDYWGQGTLVTVSS VL: DIVMTQSPLSLPVTPGEPASISCRSSKSLLHSNANTYLYWFLQKPGQSPQLLIYRMSNLASGVPDRFSGSGSGTDFTLKISRVEAEDVGVYYCMQHLKYPLTFGGGTKVELK | 0.459 | 101 | 0.216 | 793000 | 0.462 | 4.25e+06 | 173000 | – | – | – | – | –
10 | 262C2G7 (antibody, V domains shown, purified murine hybridoma antibody) VH: DVHLQESGPGLVKPSQSLSLTCSVTGYSITSGYYWNWIRQFPGNKLEWMGYISYDGSNNYNPSLKNRISITRDISKNQFFLKLNSVTTEDTATYYCARQIGLRRGAMDYWGQGTSVTVSS VL: DIQMTQSSSYLSVSLGGRVTITCKASDHINNWLAWYQQKPGNAPRLLISGSTSLKAGVASRFSGSGSGKDYTLTITSLQTEDVATYYCQQYWGIPFTFGGGTKLEIK | – | – | – | – | – | – | – | – | 1.57 | 95.6 | 0.632 | 86.1
11 | 191E12H8 (antibody, V domains shown, purified murine hybridoma antibody) VH: DVQLQESGPGLVKPSQSLSLTCSVTGYSITSGYYWNWIRQFPGNKLEWMGYISYDGSNNYNPSLKNRISITRDISKNQFFLKLNSVTTEDTATYYCARQIGLRRGAMDYWGQGTSVTVSS VL: DIQMTQSSSYLSVSLGGRVTITCKASDHINTWLAWYQQKPGNAPRLLISGSTSLKAGVASRFSGSGSGKDYTLTITSLQTEDVATYYCQQYWGIPFTFGGGTKLEIK | – | – | – | – | – | – | – | – | 13.3 | 89.7 | 0.934 | 85.6
12 | 234G9C12 (antibody, V domains shown, purified murine hybridoma antibody) VH: DVQLQESGPGLVKPSQSLSLTCSVTGYSITSGYYWNWIRQFPGNKLEWMGYTSYDGSNNYNPSFKNRISITRDISKNQFFLKLNSVTTEDTATYYCARQIGLRRGAMDHWGQGTSVTVSS VL: DIQMTQSSSYLSVSLGGRVTITCKASDHINNWLAWYQQKPGNAPRLLISGSTSLRAGVASRFSGSGSGKDYTLTITSLQTEDVATYYCQQYWGIPFTFGGGTKLEIK | – | – | – | – | – | – | – | – | 1.34 | 96.8 | 0.812 | 94
13 | 273H2G6 (antibody, V domains shown, purified murine hybridoma antibody) VH: DVQLQESGPGLVKPSQSLSLTCSVTGYSITSGYYWNWIRQFPGNKLEWMGYISYDGSNNYNPSLKNRISITRDISKNQFFLKLNSVTTEDTATYYCARQVGLRRGAMDYWGQGTSVTVSS VL: DIQMTQSSSYLSVSLGGRVTITCKASDHINNWLAWYQQKPGNAPRLLISGSTSLKAGVASRFSGSGSGKDYTLSITSLQTEDVATYYCQQYWSIPYTFGGGTKLEIK | – | – | – | – | – | – | – | – | 2.48 | 91.3 | 0.782 | 85.8
14 | 348E2D11 (antibody, V domains shown, purified murine hybridoma antibody) VH: QVQLVETGGGLVRPGNSLKLSCVTSGFSFSNYRMHWLRQPPGKRLEWIAVITVKSDNYGANYAESVKGRFTISRDDSKSSVYLQMNRLREEDTATYYCSSLGRVAYWGQGTLVTVSA VL: DIVMTQSQKFMFTSVGDRVSVTCKASQNVDTNVVWYQQKPGQSPKALIYSASSRYSGVPDRFTGSGSGTDFTLTISNVQSEDLAEYFCQQHNSFPLTFGAGTKLELI | – | – | – | – | – | – | – | – | 0.231 | 95 | 0.368 | 100
